From patent US20210139548A1 (published 2021)
Blank lines part the entries; values can stand above or below the binder they belong to. *1 amine or outer side, *2 acyl side, *3 side chain or, on linkers, in order; H or OH if unused. Side-chain parts run from the residue outwards. The star is where a group is joined. C18 diacid = O=C(O)CCCCCCCCCCCCCCCCC(=O)*; γGlu = O=C(O)[C@H](CCC(=O)[*:2])N[*:1]; Isovaleryl = CC(C)CC(=O)*; AEEA = NCCOCCOCC(=O)O

Target: T1, human neuropeptide Y2 receptor (human, UniProt P49146 1-381)
T1 construct: whole, on cells; also called hNPY2 receptor; hNPY2-R
T1 sequence (looked up): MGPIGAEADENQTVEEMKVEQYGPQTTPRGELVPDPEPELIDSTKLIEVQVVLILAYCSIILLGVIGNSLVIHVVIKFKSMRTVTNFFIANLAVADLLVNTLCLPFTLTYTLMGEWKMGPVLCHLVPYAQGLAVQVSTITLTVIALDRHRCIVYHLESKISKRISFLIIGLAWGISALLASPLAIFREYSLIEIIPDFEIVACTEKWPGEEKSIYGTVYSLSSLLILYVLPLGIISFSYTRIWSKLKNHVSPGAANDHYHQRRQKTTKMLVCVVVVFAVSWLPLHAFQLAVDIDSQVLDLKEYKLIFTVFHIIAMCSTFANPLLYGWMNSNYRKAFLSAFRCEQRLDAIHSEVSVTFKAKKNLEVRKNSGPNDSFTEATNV
Experiment: radioligand competition (125I-PYY(1-36)), hNPY2R membranes
Outline: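 Commercial human Y2 receptor membranes (0.5 μg protein/well) were incubated with peptide for 2 h at room temperature in 50 mM HEPES, 5 mM MgCl₂, 1 mM CaCl₂, pH 7.4, with 0.2% ovalbumin. Bound radioligand was separated on PEI-soaked GF/C filters and counted by scintillation, and IC₅₀ came from nonlinear sigmoidal regression.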

B1: Compound 160 (peptide)
peptide: Isovaleryl-APEK([AEEA-AEEA-γGlu-C18 diacid])PEADAEPEELQRYYTSLRHYYNWLTRQRY-NH2
SMILES: CC(C)CC(=O)N[C@@H](C)C(=O)N1CCC[C@H]1C(=O)N[C@@H](CCC(=O)O)C(=O)N[C@@H](CCCCNC(=O)COCCOCCNC(=O)COCCOCCNC(=O)CC[C@H](NC(=O)CCCCCCCCCCCCCCCCC(=O)O)C(=O)O)C(=O)N1CCC[C@H]1C(=O)N[C@@H](CCC(=O)O)C(=O)N[C@@H](C)C(=O)N[C@@H](CC(=O)O)C(=O)N[C@@H](C)C(=O)N[C@@H](CCC(=O)O)C(=O)N1CCC[C@H]1C(=O)N[C@@H](CCC(=O)O)C(=O)N[C@@H](CCC(=O)O)C(=O)N[C@@H](CC(C)C)C(=O)N[C@@H](CCC(N)=O)C(=O)N[C@@H](CCCNC(=N)N)C(=O)N[C@@H](Cc1ccc(O)cc1)C(=O)N[C@@H](Cc1ccc(O)cc1)C(=O)N[C@H](C(=O)N[C@@H](CO)C(=O)N[C@@H](CC(C)C)C(=O)N[C@@H](CCCNC(=N)N)C(=O)N[C@@H](Cc1c[nH]cn1)C(=O)N[C@@H](Cc1ccc(O)cc1)C(=O)N[C@@H](Cc1ccc(O)cc1)C(=O)N[C@@H](CC(N)=O)C(=O)N[C@@H](Cc1c[nH]c2ccccc12)C(=O)N[C@@H](CC(C)C)C(=O)N[C@H](C(=O)N[C@@H](CCCNC(=N)N)C(=O)N[C@@H](CCC(N)=O)C(=O)N[C@@H](CCCNC(=N)N)C(=O)N[C@@H](Cc1ccc(O)cc1)C(N)=O)[C@@H](C)O)[C@@H](C)O
Ki: 2 nM

B4: Compound 163 (peptide)
peptide: Isovaleryl-APEK([AEEA-AEEA-γGlu-C18 diacid])PEEAASPEELQRYYVALRHYYNWLTRQRY-NH2
SMILES: CC(C)CC(=O)N[C@@H](C)C(=O)N1CCC[C@H]1C(=O)N[C@@H](CCC(=O)O)C(=O)N[C@@H](CCCCNC(=O)COCCOCCNC(=O)COCCOCCNC(=O)CC[C@H](NC(=O)CCCCCCCCCCCCCCCCC(=O)O)C(=O)O)C(=O)N1CCC[C@H]1C(=O)N[C@@H](CCC(=O)O)C(=O)N[C@@H](CCC(=O)O)C(=O)N[C@@H](C)C(=O)N[C@@H](C)C(=O)N[C@@H](CO)C(=O)N1CCC[C@H]1C(=O)N[C@@H](CCC(=O)O)C(=O)N[C@@H](CCC(=O)O)C(=O)N[C@@H](CC(C)C)C(=O)N[C@@H](CCC(N)=O)C(=O)N[C@@H](CCCNC(=N)N)C(=O)N[C@@H](Cc1ccc(O)cc1)C(=O)N[C@@H](Cc1ccc(O)cc1)C(=O)N[C@H](C(=O)N[C@@H](C)C(=O)N[C@@H](CC(C)C)C(=O)N[C@@H](CCCNC(=N)N)C(=O)N[C@@H](Cc1c[nH]cn1)C(=O)N[C@@H](Cc1ccc(O)cc1)C(=O)N[C@@H](Cc1ccc(O)cc1)C(=O)N[C@@H](CC(N)=O)C(=O)N[C@@H](Cc1c[nH]c2ccccc12)C(=O)N[C@@H](CC(C)C)C(=O)N[C@H](C(=O)N[C@@H](CCCNC(=N)N)C(=O)N[C@@H](CCC(N)=O)C(=O)N[C@@H](CCCNC(=N)N)C(=O)N[C@@H](Cc1ccc(O)cc1)C(N)=O)[C@@H](C)O)C(C)C
Ki: 0.96 nM

B5: Compound 169 (peptide)
peptide: Isovaleryl-APEK([AEEA-AEEA-γGlu-C18 diacid])PEEEASPEELQRYYVALRHYYNWLTRQRY-NH2
SMILES: CC(C)CC(=O)N[C@@H](C)C(=O)N1CCC[C@H]1C(=O)N[C@@H](CCC(=O)O)C(=O)N[C@@H](CCCCNC(=O)COCCOCCNC(=O)COCCOCCNC(=O)CC[C@H](NC(=O)CCCCCCCCCCCCCCCCC(=O)O)C(=O)O)C(=O)N1CCC[C@H]1C(=O)N[C@@H](CCC(=O)O)C(=O)N[C@@H](CCC(=O)O)C(=O)N[C@@H](CCC(=O)O)C(=O)N[C@@H](C)C(=O)N[C@@H](CO)C(=O)N1CCC[C@H]1C(=O)N[C@@H](CCC(=O)O)C(=O)N[C@@H](CCC(=O)O)C(=O)N[C@@H](CC(C)C)C(=O)N[C@@H](CCC(N)=O)C(=O)N[C@@H](CCCNC(=N)N)C(=O)N[C@@H](Cc1ccc(O)cc1)C(=O)N[C@@H](Cc1ccc(O)cc1)C(=O)N[C@H](C(=O)N[C@@H](C)C(=O)N[C@@H](CC(C)C)C(=O)N[C@@H](CCCNC(=N)N)C(=O)N[C@@H](Cc1c[nH]cn1)C(=O)N[C@@H](Cc1ccc(O)cc1)C(=O)N[C@@H](Cc1ccc(O)cc1)C(=O)N[C@@H](CC(N)=O)C(=O)N[C@@H](Cc1c[nH]c2ccccc12)C(=O)N[C@@H](CC(C)C)C(=O)N[C@H](C(=O)N[C@@H](CCCNC(=N)N)C(=O)N[C@@H](CCC(N)=O)C(=O)N[C@@H](CCCNC(=N)N)C(=O)N[C@@H](Cc1ccc(O)cc1)C(N)=O)[C@@H](C)O)C(C)C
Ki: 2.34 nM

The remaining binders from weak to strong by Ki, led by results:

Ki: 12.3 nM
B3: Compound 170 (peptide)
peptide: Isovaleryl-APEK([AEEA-AEEA-γGlu-C18 diacid])PEEEASPEELEQYYVSLRHYYNWLTRQRY-NH2
SMILES: CC(C)CC(=O)N[C@@H](C)C(=O)N1CCC[C@H]1C(=O)N[C@@H](CCC(=O)O)C(=O)N[C@@H](CCCCNC(=O)COCCOCCNC(=O)COCCOCCNC(=O)CC[C@H](NC(=O)CCCCCCCCCCCCCCCCC(=O)O)C(=O)O)C(=O)N1CCC[C@H]1C(=O)N[C@@H](CCC(=O)O)C(=O)N[C@@H](CCC(=O)O)C(=O)N[C@@H](CCC(=O)O)C(=O)N[C@@H](C)C(=O)N[C@@H](CO)C(=O)N1CCC[C@H]1C(=O)N[C@@H](CCC(=O)O)C(=O)N[C@@H](CCC(=O)O)C(=O)N[C@@H](CC(C)C)C(=O)N[C@@H](CCC(=O)O)C(=O)N[C@@H](CCC(N)=O)C(=O)N[C@@H](Cc1ccc(O)cc1)C(=O)N[C@@H](Cc1ccc(O)cc1)C(=O)N[C@H](C(=O)N[C@@H](CO)C(=O)N[C@@H](CC(C)C)C(=O)N[C@@H](CCCNC(=N)N)C(=O)N[C@@H](Cc1c[nH]cn1)C(=O)N[C@@H](Cc1ccc(O)cc1)C(=O)N[C@@H](Cc1ccc(O)cc1)C(=O)N[C@@H](CC(N)=O)C(=O)N[C@@H](Cc1c[nH]c2ccccc12)C(=O)N[C@@H](CC(C)C)C(=O)N[C@H](C(=O)N[C@@H](CCCNC(=N)N)C(=O)N[C@@H](CCC(N)=O)C(=O)N[C@@H](CCCNC(=N)N)C(=O)N[C@@H](Cc1ccc(O)cc1)C(N)=O)[C@@H](C)O)C(C)C

Ki: 2.49 nM
B6: Compound 165 (peptide)
peptide: Isovaleryl-APEK([AEEA-AEEA-γGlu-C18 diacid])PEEDASPEELQRYQVSLRHYYNWLTRQRY-NH2
SMILES: CC(C)CC(=O)N[C@@H](C)C(=O)N1CCC[C@H]1C(=O)N[C@@H](CCC(=O)O)C(=O)N[C@@H](CCCCNC(=O)COCCOCCNC(=O)COCCOCCNC(=O)CC[C@H](NC(=O)CCCCCCCCCCCCCCCCC(=O)O)C(=O)O)C(=O)N1CCC[C@H]1C(=O)N[C@@H](CCC(=O)O)C(=O)N[C@@H](CCC(=O)O)C(=O)N[C@@H](CC(=O)O)C(=O)N[C@@H](C)C(=O)N[C@@H](CO)C(=O)N1CCC[C@H]1C(=O)N[C@@H](CCC(=O)O)C(=O)N[C@@H](CCC(=O)O)C(=O)N[C@@H](CC(C)C)C(=O)N[C@@H](CCC(N)=O)C(=O)N[C@@H](CCCNC(=N)N)C(=O)N[C@@H](Cc1ccc(O)cc1)C(=O)N[C@@H](CCC(N)=O)C(=O)N[C@H](C(=O)N[C@@H](CO)C(=O)N[C@@H](CC(C)C)C(=O)N[C@@H](CCCNC(=N)N)C(=O)N[C@@H](Cc1c[nH]cn1)C(=O)N[C@@H](Cc1ccc(O)cc1)C(=O)N[C@@H](Cc1ccc(O)cc1)C(=O)N[C@@H](CC(N)=O)C(=O)N[C@@H](Cc1c[nH]c2ccccc12)C(=O)N[C@@H](CC(C)C)C(=O)N[C@H](C(=O)N[C@@H](CCCNC(=N)N)C(=O)N[C@@H](CCC(N)=O)C(=O)N[C@@H](CCCNC(=N)N)C(=O)N[C@@H](Cc1ccc(O)cc1)C(N)=O)[C@@H](C)O)C(C)C

Ki: 0.66 nM
B2: Compound 166 (peptide)
peptide: Isovaleryl-APEK([AEEA-AEEA-γGlu-C18 diacid])PPADASPEELQRYYVELRHYYNWLTRQRY-NH2
SMILES: CC(C)CC(=O)N[C@@H](C)C(=O)N1CCC[C@H]1C(=O)N[C@@H](CCC(=O)O)C(=O)N[C@@H](CCCCNC(=O)COCCOCCNC(=O)COCCOCCNC(=O)CC[C@H](NC(=O)CCCCCCCCCCCCCCCCC(=O)O)C(=O)O)C(=O)N1CCC[C@H]1C(=O)N1CCC[C@H]1C(=O)N[C@@H](C)C(=O)N[C@@H](CC(=O)O)C(=O)N[C@@H](C)C(=O)N[C@@H](CO)C(=O)N1CCC[C@H]1C(=O)N[C@@H](CCC(=O)O)C(=O)N[C@@H](CCC(=O)O)C(=O)N[C@@H](CC(C)C)C(=O)N[C@@H](CCC(N)=O)C(=O)N[C@@H](CCCNC(=N)N)C(=O)N[C@@H](Cc1ccc(O)cc1)C(=O)N[C@@H](Cc1ccc(O)cc1)C(=O)N[C@H](C(=O)N[C@@H](CCC(=O)O)C(=O)N[C@@H](CC(C)C)C(=O)N[C@@H](CCCNC(=N)N)C(=O)N[C@@H](Cc1c[nH]cn1)C(=O)N[C@@H](Cc1ccc(O)cc1)C(=O)N[C@@H](Cc1ccc(O)cc1)C(=O)N[C@@H](CC(N)=O)C(=O)N[C@@H](Cc1c[nH]c2ccccc12)C(=O)N[C@@H](CC(C)C)C(=O)N[C@H](C(=O)N[C@@H](CCCNC(=N)N)C(=O)N[C@@H](CCC(N)=O)C(=O)N[C@@H](CCCNC(=N)N)C(=O)N[C@@H](Cc1ccc(O)cc1)C(N)=O)[C@@H](C)O)C(C)C
